Measurements: patent US8158585B2, “Cross-β structure comprising amyloid-binding proteins and methods for detection of the cross-β structure, for modulating cross-β structures fiber formation and modulating cross-β structure-mediated toxicity” (CrossBeta Biosciences B.V., priority 2002, dated 2012)
Where no end group is shown, it is not given here.

Tests used:
[1] = Circular dichroism: percentage β-sheet (k2d software); format: physicochemical
Procedure: UV circular dichroism (CD) spectra of peptide and protein solutions ([…] in H2O) were measured on a JASCO J-810 CD spectropolarimeter (Tokyo, Japan). Averaged absorption spectra of five or ten single measurements from 190-240 nm or from 190-250 nm, for fibrin peptides 85, 86, 87 or for albumin, glycated albumin and human Aβ (16-22), respectively, are recorded. The CD spectrum of Aβ (16-22) was measured as a positive control. Aβ (16-22) readily adopts amyloid fiber conformation with cross-β structure when incubated in H2O^45. For albumin and Aβ (16-22), relative percentage of the secondary structure elements present was estimated using k2d software.^48

tPA = biological target: T1, tPA (Homo sapiens, UniProt P00750); experiment: ELISA: binding of tPA to 86-week glycated albumin-AGE preparations; conditions: albumin incubated 86 weeks; 10 mM εACA
T1 construct: purchased Boehringer-Ingelheim (Germany)
Procedure: Binding of the cross-B structure marker tPA to albumin-AGE was tested using an ELISA setup. […] Therefore, we used tPA binding to these two peptides as positive control. The 86-week glycated samples and controls were coated to Greiner microlon plates (catalogue #655092, Greiner, Frickenhausen, Germany). Wells were blocked with Superblock (Pierce, Rockford, Ill., USA). All subsequent incubations were performed in PBS/0.1% (v/v) Tween 20 for one hour at room temperature while shaking, with volumes of 50 μl per well. After incubation, wells were washed five times with 300 μl PBS/0.1% (v/v) Tween 20. Increasing concentrations of tPA were added in triplicate to coated wells as well as to control wells. During tPA incubations of 86-week incubated samples, at least a 123,000 times molar excess of ε-amino caproic acid (εACA, 10 mM) was added to the solutions. εACA is a lysine analogue and is used to avoid potential binding of tPA to albumin via its kringle 2 domain.^50 Monoclonal antibody 374b (American Diagnostica, Instrumentation laboratory, Breda, The Netherlands) and, subsequently, RAMPO (Dako diagnostics, Glostrup, Denmark) was added to the wells at a concentration of 0.3 μg ml^−1. Bound peroxidase-labeled antibody was visualized using 100 μl of a solution containing 8 mg ortho-phenylene-diamine in 20 ml 50 mM citric acid/100 mM Na2HPO4 pH 5.0 with 0.0175% (v/v) H2O2. Staining was stopped upon adding 50 μl of a 2 M H2SO4 solution. Absorbance was read at 490 nm on a Vmax kinetic microplate reader (Molecular Devices, CA, USA). Background signals from non-coated control wells were substracted from corresponding coated wells.

Aβ fibrils = biological target: T2, Aβ fibrils (Homo sapiens, UniProt P05067); experiment: Amyloid pull-down with insoluble Aβ fibers; format: binding; conditions: conditioned BHK medium
T2 construct: Peptide Aβ (1-40), containing amino acids as present in the described human Alzheimer peptide; purchased Pepscan, Inc. (The Netherlands) or peptide synthesis facility at the Netherlands Cancer Institute; host or cells: synthetic peptide
Procedure: Conditioned medium of BHK cells expressing GST-tagged tPA F, F-EGF, EGF, K1, F-EGF-K1, FXII F, HGFa F, Fn F4, Fn F5, Fn F4-5 and GST was used for amyloid binding assays. At first, constructs were adjusted to approximately equal concentration using Western blots. Qualitative binding of the recombinant fragments were evaluated using a “pull-down” assay. To this end, the recombinantly made fragments were incubated with either Aβ or IAPP fibrils. Since these peptides form insoluble fibers, unbound proteins can be easily removed from the fibers following centrifugation. The pellets containing the bound fragments were subsequently washed several times. Bound fragments were solubilized in SDS-sample buffer and analyzed by PAGE, as were unbound proteins in the supernatant fraction and starting material. The gels were analyzed using immunoblotting analysis with the anti-GST antibody Z-5.

[2] = biological target: T3, tPA-mediated plasminogen activation (Homo sapiens, UniProt P00750); experiment: Plasminogen activation assay; format: biochemical; conditions: plasminogen 200 μg ml−1, tPA 200 pM, 5 μM co-factor, S-2251
T3 construct: purchased Boehringer-Ingelheim (Germany)
Procedure: Plasminogen (200 μg ml^−1) was incubated with tPA (200 pM) in the presence or the absence of a co-factor (5 μM of either endostatin, Aβ (1-40), or one the fibrin-derived peptides 85, 86 and 87). At the indicated time intervals, samples were taken and the reaction was stopped in a buffer containing 5 mM EDTA and 150 mM εACA. After collection of the samples, a chromogenic plasmin substrate S-2251 was added and plasmin activity was determined kinetically in a spectrophotometer at 37° C.

T1 sequence (P00750 36-562): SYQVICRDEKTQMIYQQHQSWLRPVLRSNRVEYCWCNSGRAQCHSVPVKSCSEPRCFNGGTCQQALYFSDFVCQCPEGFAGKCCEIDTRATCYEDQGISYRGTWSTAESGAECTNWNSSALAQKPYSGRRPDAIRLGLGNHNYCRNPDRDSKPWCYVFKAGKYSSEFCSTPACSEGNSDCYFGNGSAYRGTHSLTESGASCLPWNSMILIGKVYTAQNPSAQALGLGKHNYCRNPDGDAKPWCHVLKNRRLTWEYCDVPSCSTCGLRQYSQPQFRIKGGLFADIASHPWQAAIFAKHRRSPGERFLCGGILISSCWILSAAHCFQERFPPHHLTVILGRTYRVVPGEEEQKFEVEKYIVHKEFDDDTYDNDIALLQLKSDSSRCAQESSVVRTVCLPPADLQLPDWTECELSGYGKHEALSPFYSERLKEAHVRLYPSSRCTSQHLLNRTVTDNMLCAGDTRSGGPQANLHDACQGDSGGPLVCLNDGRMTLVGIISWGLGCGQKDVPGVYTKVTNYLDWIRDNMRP
T3 sequence (P00750 36-562): as above
T2 sequence (P05067 672-711): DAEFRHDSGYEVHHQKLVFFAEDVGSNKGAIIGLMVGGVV

For “Albumin control: albumin incubated with g6p or glyceraldehyde omitted [reference compound]”, the “β-sheet (%)” value ([1]; incubation time 2 weeks) was 0% and the “β-sheet (%)” value ([1]; incubation time 23 weeks) was 0%.

For “Albumin-glyceraldehyde: glyceraldehyde-modified albumin”, the “binding of amyloid-specific serine protease tPA” value (tPA) was “bound specifically” and the “β-sheet (%)” value ([1]; incubation time 2 weeks) was 0%.

With “Aβ (16-22): human Aβ fragment, positive control that adopts amyloid fiber conformation (KLVFFAE) [reference compound]” the “β-sheet (%)” value ([1]; no incubation time given) was 100%.

In the case of “EGF-GST: EGF fragment of human tPA with C-terminal GST tag (CSEPRCFNGGTCQQALYFSDFVCQCPEGFAGKCCEID-{GST}; cysteine pairing not given here)”, the “binding to Aβ fibers (pull-down, Western blot)” value (“binding to Aβ fibers” for short) (Aβ fibrils) is reported as “remain in the supernatant”.

In the case of “KCNTATCATQRLANFLVHSSNNFGAILSSTNVGSNTY (Peptide fl-hIAPP from Homo sapiens)”, the “binding of amyloid-specific serine protease tPA” value (tPA) is reported as “bound specifically”, the “stimulation of tPA-mediated plasmin formation” value (“stimulation” for short) [2] is reported as “stimulate” and the “stimulation” value ([2]; listed as IAPP) is reported as “enhanced”.

For “KRLEVDIDIK (Peptide FP10 from Homo sapiens) [compound 87]”, the “stimulation” value [2] was “does not”.

With “KRLEVDIDIKIR (Peptide FP12 from Homo sapiens) [compound 86]” the “stimulation” value [2] was “stimulate”.

With “KRLEVDIDIKIRS (Peptide FP13 from Homo sapiens) [compound 85]” the “stimulation” value [2] was “stimulate”.

In the case of “SNNFGAILSS (Peptide Delta hIAPP from Homo sapiens) [Δ-hIAPP]”, the “stimulation” value [2] is reported as “stimulate”.

In the case of “SNNLGPVLPP (Peptide Delta mIAPP from Homo sapiens) [Δ-mIAPP]”, the “stimulation” value [2] is reported as “not”.

In the case of “albumin-glyoxylic acid: albumin incubated 86 weeks with 500 mM glyoxylic acid/100 mM NaCNBH3”, the “binding of amyloid-specific serine protease tPA” value (tPA) is reported as “No tPA binding”.

B1: F-EGF-K1-GST: F-EGF-K1 fragment of human tPA with C-terminal GST tag (protein)
chain: SYQVICRDEKTQMIYQQHQSWLRPVLRSNRVEYCWCNSGRAQCHSVPVKSCSEPRCFNGGTCQQALYFSDFVCQCPEGFAGKCCEIDTRATCYEDQGISYRGTWSTAESGAECTNWNSSALAQKPYSGRRPDAIRLGLGNHNYCRNPDRDSKPWCYVFKAGKYSSEFCSTPACSE
modifications: left off: small tags and cut ends; a dimerising Fc or GST
notes: F-EGF-K1 fragment of human tPA with C-terminal GST tag
In the case of B1, the “binding to Aβ fibers” value (Aβ fibrils) is reported as “Efficient binding”.

B2: K1-GST: K1 fragment of human tPA with C-terminal GST tag (protein)
chain: TRATCYEDQGISYRGTWSTAESGAECTNWNSSALAQKPYSGRRPDAIRLGLGNHNYCRNPDRDSKPWCYVFKAGKYSSEFCSTPACSE
modifications: left off: small tags and cut ends; a dimerising Fc or GST
notes: K1 fragment of human tPA with C-terminal GST tag
For B2, the “binding to Aβ fibers” value (Aβ fibrils) was “remain in the supernatant”.
